{"source": "patent US20070117180"}
{"substance": "PACE4 (Plasminogen Angiostatin Converting Enzyme of pH 4)", "values": [{"measurement": "degradation of fibronectin by the enzyme", "setting": "fibronectin", "result": "Fibronectin was degraded restrictedly with this enzyme"}, {"measurement": "fragmentation of plasminogen (SDS-PAGE) at neutral and acidic pH", "setting": "plasminogen (Glu-1)", "result": "the enzyme of the present invention fragments plasminogen only at an acidic range of pH"}]}
